Laboratory results published in patent US20100254972A1.

What was measured:
[1] = target: human TNFR1 (soluble recombinant protein) (human) (UniProt P19438); test: phage ELISA, plate coated with 1 nM TNFR1, anti-M13-HRP; trypsin 1 mg/ml; phage input 3.52E+08
[2] = target: human TNFR1 (soluble recombinant protein) (human) (UniProt P19438); test: phage ELISA, plate coated with 1 nM TNFR1, anti-M13-HRP; trypsin 100 µg/ml; phage input 3.52E+08
[3] = target: human TNFR1 (soluble recombinant protein) (human) (UniProt P19438); test: phage ELISA, plate coated with 1 nM TNFR1, anti-M13-HRP; trypsin 1 mg/ml; phage input 2.82E+09
[4] = target: human TNFR1 (soluble recombinant protein) (human) (UniProt P19438); test: phage ELISA, plate coated with 1 nM TNFR1, anti-M13-HRP; trypsin 10 µg/ml; phage input 5.64E+09
[5] = target: human TNFR1 (soluble recombinant protein) (human) (UniProt P19438); test: phage ELISA, plate coated with 1 nM TNFR1, anti-M13-HRP; trypsin 100 µg/ml; phage input 1.41E+09
[6] = target: human TNFR1 (soluble recombinant protein) (human) (UniProt P19438); test: phage ELISA, plate coated with 1 nM TNFR1, anti-M13-HRP; phage treated 1 h RT with trypsin 1 mg/ml; phage input 4.51E+10
[7] = target: human TNFR1 (soluble recombinant protein) (human) (UniProt P19438); test: phage ELISA, plate coated with 1 nM TNFR1, anti-M13-HRP; trypsin 10 µg/ml; phage input 1.41E+09
[8] = target: human TNFR1 (soluble recombinant protein) (human) (UniProt P19438); test: phage ELISA, plate coated with 1 nM TNFR1, anti-M13-HRP; trypsin 0 µg/ml; phage input 1.41E+09
[9] = target: human TNFR1 (soluble recombinant protein) (human) (UniProt P19438); test: phage ELISA, plate coated with 1 nM TNFR1, anti-M13-HRP; trypsin 10 µg/ml; phage input 3.52E+08
[10] = target: human TNFR1 (soluble recombinant protein) (human) (UniProt P19438); test: phage ELISA, plate coated with 1 nM TNFR1, anti-M13-HRP; trypsin 10 µg/ml; phage input 2.82E+09
[11] = target: human TNFR1 (soluble recombinant protein) (human) (UniProt P19438); test: phage ELISA, plate coated with 1 nM TNFR1, anti-M13-HRP; trypsin 0 µg/ml; phage input 1.13E+10
[12] = target: human TNFR1 (soluble recombinant protein) (human) (UniProt P19438); test: phage ELISA, plate coated with 1 nM TNFR1, anti-M13-HRP; trypsin 1 mg/ml; phage input 1.13E+10
[13] = target: human TNFR1 (soluble recombinant protein) (human) (UniProt P19438); test: phage ELISA, plate coated with 1 nM TNFR1, anti-M13-HRP; trypsin 100 µg/ml; phage input 4.51E+10
[14] = target: human TNFR1 (soluble recombinant protein) (human) (UniProt P19438); test: phage ELISA, plate coated with 1 nM TNFR1, anti-M13-HRP; trypsin 0 µg/ml; phage input 7.05E+08
[15] = target: human TNFR1 (soluble recombinant protein) (human) (UniProt P19438); test: phage ELISA, plate coated with 1 nM TNFR1, anti-M13-HRP; trypsin 0 µg/ml; phage input 5.64E+09
[16] = target: human TNFR1 (soluble recombinant protein) (human) (UniProt P19438); test: phage ELISA, plate coated with 1 nM TNFR1, anti-M13-HRP; trypsin 0 µg/ml; phage input 4.51E+10
[17] = target: human TNFR1 (soluble recombinant protein) (human) (UniProt P19438); test: phage ELISA, plate coated with 1 nM TNFR1, anti-M13-HRP; trypsin 10 µg/ml; phage input 4.51E+10
[18] = target: human TNFR1 (soluble recombinant protein) (human) (UniProt P19438); test: phage ELISA, plate coated with 1 nM TNFR1, anti-M13-HRP; trypsin 1 mg/ml; phage input 5.64E+09
[19] = target: human TNFR1 (soluble recombinant protein) (human) (UniProt P19438); test: phage ELISA, plate coated with 1 nM TNFR1, anti-M13-HRP; trypsin 10 µg/ml; phage input 7.05E+08
[20] = target: human TNFR1 (soluble recombinant protein) (human) (UniProt P19438); test: phage ELISA, plate coated with 1 nM TNFR1, anti-M13-HRP; trypsin 1 mg/ml; phage input 1.41E+09
[21] = target: human TNFR1 (soluble recombinant protein) (human) (UniProt P19438); test: phage ELISA, plate coated with 1 nM TNFR1, anti-M13-HRP; trypsin 1 mg/ml; phage input 7.05E+08
[22] = target: human TNFR1 (soluble recombinant protein) (human) (UniProt P19438); test: phage ELISA, plate coated with 1 nM TNFR1, anti-M13-HRP; trypsin 100 µg/ml; phage input 5.64E+09
[23] = target: human TNFR1 (soluble recombinant protein) (human) (UniProt P19438); test: phage ELISA, plate coated with 1 nM TNFR1, anti-M13-HRP; trypsin 100 µg/ml; phage input 2.26E+10
[24] = target: human TNFR1 (soluble recombinant protein) (human) (UniProt P19438); test: phage ELISA, plate coated with 1 nM TNFR1, anti-M13-HRP; trypsin 1 mg/ml; phage input 2.26E+10
[25] = target: human TNFR1 (soluble recombinant protein) (human) (UniProt P19438); test: phage ELISA, plate coated with 1 nM TNFR1, anti-M13-HRP; trypsin 0 µg/ml; phage input 2.26E+10
[26] = target: human TNFR1 (soluble recombinant protein) (human) (UniProt P19438); test: phage ELISA, plate coated with 1 nM TNFR1, anti-M13-HRP; trypsin 10 µg/ml; phage input 2.26E+10
[27] = target: human TNFR1 (soluble recombinant protein) (human) (UniProt P19438); test: phage ELISA, plate coated with 1 nM TNFR1, anti-M13-HRP; trypsin 0 µg/ml; phage input 3.52E+08
[28] = target: human TNFR1 (soluble recombinant protein) (human) (UniProt P19438); test: phage ELISA, plate coated with 1 nM TNFR1, anti-M13-HRP; trypsin 10 µg/ml; phage input 1.13E+10
[29] = target: human TNFR1 (soluble recombinant protein) (human) (UniProt P19438); test: phage ELISA, plate coated with 1 nM TNFR1, anti-M13-HRP; trypsin 100 µg/ml; phage input 2.82E+09
[30] = target: human TNFR1 (soluble recombinant protein) (human) (UniProt P19438); test: phage ELISA, plate coated with 1 nM TNFR1, anti-M13-HRP; trypsin 0 µg/ml; phage input 2.82E+09
[31] = target: human TNFR1 (soluble recombinant protein) (human) (UniProt P19438); test: phage ELISA, plate coated with 1 nM TNFR1, anti-M13-HRP; trypsin 100 µg/ml; phage input 7.05E+08
[32] = target: human TNFR1 (soluble recombinant protein) (human) (UniProt P19438); test: phage ELISA, plate coated with 1 nM TNFR1, anti-M13-HRP; trypsin 100 µg/ml; phage input 1.13E+10

Sequence of human TNFR1 (soluble recombinant protein) (human) (P19438 41-201 limits assumed): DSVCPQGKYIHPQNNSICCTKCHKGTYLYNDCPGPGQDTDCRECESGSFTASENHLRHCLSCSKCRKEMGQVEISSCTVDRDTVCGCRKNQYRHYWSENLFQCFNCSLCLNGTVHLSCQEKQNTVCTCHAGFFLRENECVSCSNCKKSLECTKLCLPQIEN

phage ELISA signal [1]: 0.08
phage ELISA signal [2]: 0.084
phage ELISA signal [3]: 0.114
phage ELISA signal [4]: 0.695
phage ELISA signal [5]: 0.115
phage ELISA signal [6]: 0.284
phage ELISA signal [7]: 0.409
phage ELISA signal [8]: 0.85
phage ELISA signal [9]: 0.213
phage ELISA signal [10]: 0.573
phage ELISA signal [11]: 0.949
phage ELISA signal [12]: 0.183
phage ELISA signal [13]: 0.418
phage ELISA signal [14]: 0.705
phage ELISA signal [15]: 0.962
phage ELISA signal [16]: 0.916
phage ELISA signal [17]: 0.784
phage ELISA signal [18]: 0.133
phage ELISA signal [19]: 0.286
phage ELISA signal [20]: 0.089
phage ELISA signal [21]: 0.084
phage ELISA signal [22]: 0.196
phage ELISA signal [23]: 0.377
phage ELISA signal [24]: 0.229
phage ELISA signal [25]: 0.944
phage ELISA signal [26]: 0.802
phage ELISA signal [27]: 0.577
phage ELISA signal [28]: 0.86
phage ELISA signal [29]: 0.141
phage ELISA signal [30]: 0.946
phage ELISA signal [31]: 0.084
phage ELISA signal [32]: 0.284
Substance: DOM1h-131
